In the data set the target is MBP-TaWRKY71 (Triticum aestivum (wheat) cv. KN9204, UniProt A0A3S6GV84 1-300). Description: EMSA; complex signal weakened by 200-fold unlabeled competitor; LightShift chemiluminescent EMSA, 6% gel (printed as SDS-PAGE); 25 min at room temperature; probe annealed in 10 mM Tris-HCl pH 7.6, 1 mM EDTA, 50 mM NaCl; binding buffer not stated. The note with it: protein: recombinant; tags: N-terminal MBP (pMALC2X); label: 5' biotin; blunt. For orientation: In EMSA bound probe runs differently from free probe, usually more slowly.
Sequence of MBP-TaWRKY71 (A0A3S6GV84 entry or part of it): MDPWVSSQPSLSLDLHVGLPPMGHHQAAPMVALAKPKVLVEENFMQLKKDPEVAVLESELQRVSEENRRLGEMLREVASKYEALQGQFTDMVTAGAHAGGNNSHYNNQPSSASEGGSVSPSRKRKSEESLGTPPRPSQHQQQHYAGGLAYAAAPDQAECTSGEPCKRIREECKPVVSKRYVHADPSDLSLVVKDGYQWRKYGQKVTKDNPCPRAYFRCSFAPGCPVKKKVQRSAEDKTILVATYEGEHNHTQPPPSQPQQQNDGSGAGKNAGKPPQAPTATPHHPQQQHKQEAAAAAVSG

B1: P-W probe (TaPIP1A promoter) (dsDNA)
DNA 1: CATGACATGACAGGTGAGGTGACACCACAAG
DNA 2: CTTGTGGTGTCACCTCACCTGTCATGTCATG
Regarding B1, the binding result is recorded as “binds”.

Values taken from publication PMC12172022, “Overexpression of TaPIP1A enhances drought and salt stress tolerance in Arabidopsis: cross-species conservation and molecular dynamics”.
